Substrate in series [1]: O=C(O)c1ccc(O)cc1
Nature of the series: purified protein. To be noted: A-domain, 2.5 mM ATP, 5 mM MgCl2, 50 mM Tris-HCl pH 7.4, 1 mM DTT, 2 μM AstA, Sfp modification of T-domain essential.

Substrate in series [2]: O=C(O)c1ccccc1
Nature of the series: purified protein. The format is biochemical, Aspergillus oryzae. To be noted: A-domain, 2.5 mM ATP, 5 mM MgCl2, 50 mM Tris-HCl pH 7.4, 1 mM DTT, 2 μM AstA, Sfp modification of T-domain essential.

B1: AstA (Aspergillus oryzae RIB40) (protein)
chain: MDLEPWGPLYRKQDQDGSLDNIAVVSGDIPSPHPKNEPSQTSTLHIPRDSDLDSDIPSVPTALIIAWGLTLSSLTGDEVVGFDLLPFRGDYQDLGARPYHFLLKFGYREWSREAATTGMDLGSASSEGLPQGMGNRPQIAPSRFRNVLIIKQCSDAPGDSGSLESPSLGNVDKDEPTDAFRADMFISIQCGIGRTGIDVHCSFDPAFWTSENIRMILLDLSRNFKEVMRCGRDDTPLTCLEGMSPKGLDCVLRRNIIPPPPKMEACVHHRFQARCRQNPSALAIDAWDGQLTYAELDSLSSQLASRLVSSITICPRGFMGVLMEKSAWVPVAILAVLKVGSAFVFLDGSQPLQRLKIICAETKSQLVLSSAHYREKANTLGPPVLLVEKNQSGLGQAKENDSCPSLLEDYPQPQSQPQDTLYAVFTSGSTGEPKGAMVDHGAFCTMCGPQMAARPTTNVSPRVFQFAPHAFTVSILDYLGTLLQGGCVCVPSEEELRNNMAGAIEGLSANIVTMTPSMARVLDPTQTPSLQLVLLAGEMMAQCDLDKWSQCVRLLSLYGQSENAAGSMISEKSIVPRAPNTFETLTPGFQCWIVSQDNPHRLMALGEVGELLLEGPALGQGYMNDPIQTEDKFICRSFCLEYAHSGSPQSYRLFKTGDLVRYTPAGEIELLGRKGAEVKLRGQRIDLTEIEHHLRCLFPSATRVVADVIIPSDDIDGLHPVLAAFVQVDSVSRTGQSAEATFASPRPEFRAEAKAVLSGLCQTIPSYMIPMTIIPTEAFPFTATGKLDRRSLRQYASAMSRSDLLKYVTDDRGPVVTAVTPVEIIIHDACVEALGVSSDKVGMLDSFPDLGGDSLAARRMVSICRTKGLELAVADILAHSSLTSLAEKCSAGGGGAKQISQGVEMLDPFSTAKEEFLSHLPSFLPNADMIADVFPVQGAQRRAARAIDTFIFRLSGPVDADRLRDACQVLQQAHLALRSIFVPFYGKFMQVVLRVPPLDFTRRLLPDGTDLVKWAESIGQADKTQRPPSEEFVVRFTLAETAGTPDYSIFMMRLSHAQYDAGCLARIISDLWAVYEQKQLVVKSDFAQYARRAVQQTHLLSMEAFWRDLLAGTTGLTPLPVTGISAEEERTIIVQQRVELKEPPPTGISMATVVRGAWSWVLHQQTGNTVVVFNEMLNGRDVVPLEDTEPVVGACHSIVPVCVHFPLPQSGRTPRELLSALQEQHLASLTFTTLDRDYLIQNCTEWTSHQSGFILAYQNFPEICDLVIGEDLSCQWASQVLDLAEPGEAWVTATPLPGALQISLRVSTAAMDEQEANAWISALGQTIIRFLDSPDSVL
notes: recombinant, expressed in Escherichia coli BL21, purified; 1338 aa gene product with A, T and C domains; tag details only in supplement
The Km is the concentration of substrate that gives half-maximal velocity. The kcat is the maximal rate divided by the concentration of active sites. In the case of B1, the Km in “purified protein [1]” came out at 3.8 µM; in “purified protein [2]”, 4.9 µM. Moreover, the kcat in the series “purified protein [1]” amounted to 0.0163 s⁻¹; in “purified protein [2]” it was 0.0222 s⁻¹.

The record behind these values is paper PMC5024094, “Identification of a novel sesquiterpene biosynthetic machinery involved in astellolide biosynthesis” (Scientific Reports, 2016).
